Reference: patent publication US20070128190A1 (GLENMARK PHARMACEUTICALS S A, published 2007)

Target: T1, human platelet α2β1 integrin (immobilized on microtiter plates) (human, UniProt P17301 30-1181; P05556 21-798)
T1 construct: plates custom-coated with human platelet α2β1 by GTI Inc; also called immobilized α2β1 integrin; α2β1-coated plates
Test: competition with Eu-TMC-2206 on human platelet α2β1-coated plate
Method: (§1) Each labeled antibody mixture was applied to a separate PD-10 column (GE Biosciences, Piscataway, N.J.) pre-equilibrated with Running Buffer (50 mM Tris, pH 7.4 and 138 mM NaCl). Fractions (0.5 mL) were collected and assayed for total protein (Bradford reagent; Bio-Rad Laboratories, Hercules, Calif.) using a SpectraMax 384 absorbance plate reader and for europium after 1:10.000 dilution in DELFIA Enhancement Solution (Perkin-Elmer) by time-resolved fluorescence (TRF) using a Victor2 multi-label plate reader (Perkin Elmer). The fractions that were positive for both protein and Eu label were pooled and applied to new PD-10 columns and samples collected and assayed for total protein and for europium content by TRF calibrated against a europium standard solution (Perkin-Elmer) to calculate the fluor: protein ratio. […] After incubating the sealed plates for 1 hr at 37° C. to allow binding to reach equilibrium, 2 μL samples were transferred from each well into a fresh well containing DELFIA Enhancement Solution (100 μL/well; Perkin-Elmer) for the measurement of free (unbound) label. Enhancement Solution (100 μL/well) was added to the emptied wells for the measurement of bound label. The plate was shaken (Titer Plate Shaker speed setting of 5 for 5 minutes at room temperature) and time-resolved fluorescent (TRF) intensities were read using a Victor2 multi-label plate reader (Perkin-Elmer Wallac, Boston, Mas.).

T1 sequence (P17301 30-1181 E534K limits assumed, chain 1 of 2): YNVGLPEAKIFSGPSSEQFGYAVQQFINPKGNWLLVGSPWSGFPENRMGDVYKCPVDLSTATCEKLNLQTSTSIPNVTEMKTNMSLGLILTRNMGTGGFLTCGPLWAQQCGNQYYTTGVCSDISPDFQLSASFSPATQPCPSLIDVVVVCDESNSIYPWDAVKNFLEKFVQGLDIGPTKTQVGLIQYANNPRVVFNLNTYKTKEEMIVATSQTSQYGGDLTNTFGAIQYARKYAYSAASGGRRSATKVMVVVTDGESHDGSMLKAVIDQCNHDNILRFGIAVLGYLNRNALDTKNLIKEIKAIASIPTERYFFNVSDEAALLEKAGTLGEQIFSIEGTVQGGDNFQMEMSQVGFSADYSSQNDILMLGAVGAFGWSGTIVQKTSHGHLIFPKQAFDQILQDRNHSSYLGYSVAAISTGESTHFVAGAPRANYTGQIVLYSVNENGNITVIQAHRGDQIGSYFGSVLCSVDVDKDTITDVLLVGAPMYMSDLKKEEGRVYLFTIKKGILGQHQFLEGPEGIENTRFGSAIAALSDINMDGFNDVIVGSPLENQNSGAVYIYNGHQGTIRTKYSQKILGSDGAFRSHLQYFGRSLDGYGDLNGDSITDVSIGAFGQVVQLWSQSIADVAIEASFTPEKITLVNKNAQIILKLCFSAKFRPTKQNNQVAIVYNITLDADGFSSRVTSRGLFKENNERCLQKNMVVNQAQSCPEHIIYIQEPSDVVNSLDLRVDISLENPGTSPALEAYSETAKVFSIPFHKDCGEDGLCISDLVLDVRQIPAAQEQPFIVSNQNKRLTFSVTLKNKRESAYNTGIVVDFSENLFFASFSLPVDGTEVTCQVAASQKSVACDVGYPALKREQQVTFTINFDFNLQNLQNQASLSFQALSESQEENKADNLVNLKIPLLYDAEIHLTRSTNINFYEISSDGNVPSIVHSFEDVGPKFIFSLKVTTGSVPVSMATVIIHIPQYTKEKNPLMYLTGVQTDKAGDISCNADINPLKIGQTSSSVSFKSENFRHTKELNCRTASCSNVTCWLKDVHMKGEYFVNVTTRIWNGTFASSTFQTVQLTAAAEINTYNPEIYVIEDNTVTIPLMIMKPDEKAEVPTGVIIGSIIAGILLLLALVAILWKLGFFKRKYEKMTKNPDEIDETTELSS
T1 sequence (P05556 21-798 limits assumed, chain 2 of 2): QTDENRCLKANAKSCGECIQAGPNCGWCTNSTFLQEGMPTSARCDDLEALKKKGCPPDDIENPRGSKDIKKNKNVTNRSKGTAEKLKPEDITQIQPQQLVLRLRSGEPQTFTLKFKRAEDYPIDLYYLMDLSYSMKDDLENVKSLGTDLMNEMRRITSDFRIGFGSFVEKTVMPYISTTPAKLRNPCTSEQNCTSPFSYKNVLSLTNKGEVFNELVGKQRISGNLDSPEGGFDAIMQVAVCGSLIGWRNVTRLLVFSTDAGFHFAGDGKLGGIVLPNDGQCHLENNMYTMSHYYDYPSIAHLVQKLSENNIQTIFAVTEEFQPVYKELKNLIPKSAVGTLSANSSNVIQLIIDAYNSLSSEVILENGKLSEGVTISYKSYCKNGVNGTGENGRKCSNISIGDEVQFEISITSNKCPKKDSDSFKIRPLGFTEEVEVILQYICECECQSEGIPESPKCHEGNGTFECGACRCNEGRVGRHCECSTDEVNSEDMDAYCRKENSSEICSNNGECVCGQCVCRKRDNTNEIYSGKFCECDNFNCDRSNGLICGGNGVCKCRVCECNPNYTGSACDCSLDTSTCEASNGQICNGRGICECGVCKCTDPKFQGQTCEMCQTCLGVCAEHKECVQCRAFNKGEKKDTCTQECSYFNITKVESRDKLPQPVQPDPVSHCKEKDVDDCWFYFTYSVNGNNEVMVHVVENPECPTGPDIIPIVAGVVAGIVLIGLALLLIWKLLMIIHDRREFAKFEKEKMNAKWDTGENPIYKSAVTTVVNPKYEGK

| Ki | fold shift in potency compared to the hVH1.0, hVL1.0 variant | Binder |
| --- | --- | --- |
| 12000 pM | 36 fold | humanized TMC-2206 variant hVH3.0/hVL1.0 (antibody, human IgG1, V domains shown, human IgG1/κ constant regions) VH: QVQLQESGPGLVKPSETLSLTCTVSGFSLTNYGIHWVRQPPGKGLEWLGVIWARGFTNYNSALMSRVTISVDTSKNQFSLKLSSVTAADTAVYFCARANDGVYYAMDYWGQGTLVTVSS VL: QFVLTQSPAFLSVTPGEKVTITCSANSSVNYIHWYQQKPDQAPKKWIYDTSKLASGVPSRFSGSGSGTDYTFTISSLEAEDAATYYCQQWTTNPLTFGQGTKVEIK |
| 1340 pM | 4.2 fold | humanized TMC-2206 variant hVH4.0/hVL3.0 (antibody, human IgG1, V domains shown, human IgG1/κ constant regions) VH: QVQLQESGPGLVKPSETLSLTCTVSGFSLTNYGIHWIRQPPGKGLEWIGVIWARGFTNYNSALMSRLTISKDNSKNQVSLKLSSVTAADTAVYFCARANDGVYYAMDYWGQGTLVTVSS VL: QFVLTQSPAFLSVTPGEKVTITCSANSSVNYIHWYQQKPDQAPKLLIYDTSKLASGVPSRFSGSGSGTDYTFTISSLEAEDAATYYCQQWTTNPLTFGQGTKVEIK |
| 640 pM | 1.9 fold | humanized TMC-2206 variant hVH1.0/hVL3.0 (antibody, human IgG1, V domains shown, human IgG1/κ constant regions; also called VH1.0/VL3.0) VH: QVQLQESGPGLVKPSETLSLTCTVSGFSLTNYGIHWVRQPPGKGLEWLGVIWARGFTNYNSALMSRLTISKDNSKNQVSLKLSSVTAADTAVYFCARANDGVYYAMDYWGQGTLVTVSS VL: QFVLTQSPAFLSVTPGEKVTITCSANSSVNYIHWYQQKPDQAPKLLIYDTSKLASGVPSRFSGSGSGTDYTFTISSLEAEDAATYYCQQWTTNPLTFGQGTKVEIK |
| 1400 pM | 4.2 fold | humanized TMC-2206 variant hVH1.0/hVL4.0 (antibody, human IgG1, V domains shown, human IgG1/κ constant regions) VH: QVQLQESGPGLVKPSETLSLTCTVSGFSLTNYGIHWVRQPPGKGLEWLGVIWARGFTNYNSALMSRLTISKDNSKNQVSLKLSSVTAADTAVYFCARANDGVYYAMDYWGQGTLVTVSS VL: DVVMTQSPAFLSVTPGEKVTITCSANSSVNYIHWYQQKPDQAPKKWIYDTSKLASGVPSRFSGSGSGTDYTFTISSLEAEDAATYYCQQWTTNPLTFGQGTKVEIK |
| 2600 pM | 7.9 fold | humanized TMC-2206 variant hVH4.0/hVL4.0 (antibody, human IgG1, V domains shown, human IgG1/κ constant regions) VH: QVQLQESGPGLVKPSETLSLTCTVSGFSLTNYGIHWIRQPPGKGLEWIGVIWARGFTNYNSALMSRLTISKDNSKNQVSLKLSSVTAADTAVYFCARANDGVYYAMDYWGQGTLVTVSS VL: DVVMTQSPAFLSVTPGEKVTITCSANSSVNYIHWYQQKPDQAPKKWIYDTSKLASGVPSRFSGSGSGTDYTFTISSLEAEDAATYYCQQWTTNPLTFGQGTKVEIK |
| 202000 pM | 631 fold | humanized TMC-2206 variant hVH3.0/hVL3.0 (antibody, human IgG1, V domains shown, human IgG1/κ constant regions) VH: QVQLQESGPGLVKPSETLSLTCTVSGFSLTNYGIHWVRQPPGKGLEWLGVIWARGFTNYNSALMSRVTISVDTSKNQFSLKLSSVTAADTAVYFCARANDGVYYAMDYWGQGTLVTVSS VL: QFVLTQSPAFLSVTPGEKVTITCSANSSVNYIHWYQQKPDQAPKLLIYDTSKLASGVPSRFSGSGSGTDYTFTISSLEAEDAATYYCQQWTTNPLTFGQGTKVEIK |
| 118000 pM | 358 fold | humanized TMC-2206 variant hVH3.0/hVL4.0 (antibody, human IgG1, V domains shown, human IgG1/κ constant regions) VH: QVQLQESGPGLVKPSETLSLTCTVSGFSLTNYGIHWVRQPPGKGLEWLGVIWARGFTNYNSALMSRVTISVDTSKNQFSLKLSSVTAADTAVYFCARANDGVYYAMDYWGQGTLVTVSS VL: DVVMTQSPAFLSVTPGEKVTITCSANSSVNYIHWYQQKPDQAPKKWIYDTSKLASGVPSRFSGSGSGTDYTFTISSLEAEDAATYYCQQWTTNPLTFGQGTKVEIK |
| 440 pM | 1.3 fold | humanized TMC-2206 variant hVH4.0/hVL1.0 (antibody, human IgG1, V domains shown, human IgG1/κ constant regions) VH: QVQLQESGPGLVKPSETLSLTCTVSGFSLTNYGIHWIRQPPGKGLEWIGVIWARGFTNYNSALMSRLTISKDNSKNQVSLKLSSVTAADTAVYFCARANDGVYYAMDYWGQGTLVTVSS VL: QFVLTQSPAFLSVTPGEKVTITCSANSSVNYIHWYQQKPDQAPKKWIYDTSKLASGVPSRFSGSGSGTDYTFTISSLEAEDAATYYCQQWTTNPLTFGQGTKVEIK |

Target: T1, human platelet α2β1 integrin …
Test: as above
Remark: another data set of the same source

| fold decrease as measured by Ki | fold decrease in potency as measured by Ki | fold decrease (Ki) | fold decrease in potency compared to the hVH1.0, hVL1.0 variant (Ki) | Ki | Binder |
| --- | --- | --- | --- | --- | --- |
| 1.6 fold | – | – | – | – | humanized TMC-2206 variant hVH10.0/hVL1.0 (antibody, V domains shown, human IgG1/κ; also called change to Thr-H73) VH: QVQLQESGPGLVKPSETLSLTCTVSGFSLTNYGIHWVRQPPGKGLEWLGVIWARGFTNYNSALMSRLTISKDTSKNQVSLKLSSVTAADTAVYFCARANDGVYYAMDYWGQGTLVTVSS VL: QFVLTQSPAFLSVTPGEKVTITCSANSSVNYIHWYQQKPDQAPKKWIYDTSKLASGVPSRFSGSGSGTDYTFTISSLEAEDAATYYCQQWTTNPLTFGQGTKVEIK |
| – | 3.3 fold | – | – | – | humanized TMC-2206 variant hVH1.0/hVL9.0 (antibody, V domains shown, human IgG1/κ; also called change of L49 to the human lysine) VH: QVQLQESGPGLVKPSETLSLTCTVSGFSLTNYGIHWVRQPPGKGLEWLGVIWARGFTNYNSALMSRLTISKDNSKNQVSLKLSSVTAADTAVYFCARANDGVYYAMDYWGQGTLVTVSS VL: QFVLTQSPAFLSVTPGEKVTITCSANSSVNYIHWYQQKPDQAPKKWIKDTSKLASGVPSRFSGSGSGTDYTFTISSLEAEDAATYYCQQWTTNPLTFGQGTKVEIK |
| – | – | 6.4 fold | – | – | humanized TMC-2206 variant hVH9.0, hVL1.0 (antibody, human IgG1, V domains shown, human IgG1/κ constant regions) VH: QVQLQESGPGLVKPSETLSLTCTVSGFSLTNYGIHWVRQPPGKGLEWIGVIWARGFTNYNSALMSRLTISVDNSKNQVSLKLSSVTAADTAVYFCARANDGVYYAMDYWGQGTLVTVSS VL: QFVLTQSPAFLSVTPGEKVTITCSANSSVNYIHWYQQKPDQAPKKWIYDTSKLASGVPSRFSGSGSGTDYTFTISSLEAEDAATYYCQQWTTNPLTFGQGTKVEIK |
| – | – | – | 70 fold | – | humanized TMC-2206 variant hVH11.0, hVL1.0 (antibody, human IgG1, V domains shown, human IgG1/κ constant regions) VH: QVQLQESGPGLVKPSETLSLTCTVSGFSLTNYGIHWVRQPPGKGLEWIGVIWARGFTNYNSALMSRLTISKDNSKNQFSLKLSSVTAADTAVYFCARANDGVYYAMDYWGQGTLVTVSS VL: QFVLTQSPAFLSVTPGEKVTITCSANSSVNYIHWYQQKPDQAPKKWIYDTSKLASGVPSRFSGSGSGTDYTFTISSLEAEDAATYYCQQWTTNPLTFGQGTKVEIK |
| – | – | – | – | 410 pM | TMC-2206 VH D100R variant antibody (antibody, V domains shown, variant murine VH-containing antibody; also called reverse charge mutant D100R) VH: QVQLKESGPGLVAPSQSLSITCTVSGFSLTNYGIHWVRQPPGKGLEWLGVIWARGFTNYNSALMSRLIITKDNSQSQVFLKMNSLQPDDSATYFCARANRGVYYAMDYWGQGTSVTVSS VL: QFVLTQSPAFLSASPGEKVTMTCSANSSVNYIHWYQQKSGTSPKKWIYDTSKLASGVPVRFSGSGSGTSYSLTISSMETEDAATYYCQQWTTNPLTFGAGTRVELK |

Target: T1, human platelet α2β1 integrin …
Test: as above
Remark: another data set of the same source
Method: as §1

| Ki | Binder |
| --- | --- |
| 350 pM | humanized TMC-2206 variant hVH1.0/hVL1.0Q (antibody, human IgG1, V domains shown, human IgG1/κ constant regions; also called VH 1.0 VL 1.0Q) VH: QVQLQESGPGLVKPSETLSLTCTVSGFSLTNYGIHWVRQPPGKGLEWLGVIWARGFTNYNSALMSRLTISKDNSKNQVSLKLSSVTAADTAVYFCARANDGVYYAMDYWGQGTLVTVSS VL: QFVLTQSPAFLSVTPGEKVTITCSAQSSVNYIHWYQQKPDQAPKKWIYDTSKLASGVPSRFSGSGSGTDYTFTISSLEAEDAATYYCQQWTTNPLTFGQGTKVEIK |
| 330 pM | humanized TMC-2206 variant hVH14.0/hVL12.0Q (antibody, human IgG1, V domains shown, human IgG1/κ constant regions; also called VH 14.0 VL 12.0Q) VH: QVQLQESGPGLVKPSETLSLTCTVSGFSLTNYGIHWIRQPPGKGLEWLGVIWARGFTNYNSALMSRVTISKDNSKNQVSLKLSSVTAADTAVYYCARANDGVYYAMDYWGQGTLVTVSS VL: DFVMTQSPAFLSVTPGEKVTITCSAQSSVNYIHWYQQKPDQAPKKLIYDTSKLASGVPSRFSGSGSGTDFTFTISSLEAEDAATYYCQQWTTNPLTFGQGTKVEIK |
| 320 pM | humanized TMC-2206 variant hVH14.0/hVL10.0 (antibody, human IgG1, V domains shown, human IgG1/κ constant regions; also called VH 14.0 VL 10.0) VH: QVQLQESGPGLVKPSETLSLTCTVSGFSLTNYGIHWIRQPPGKGLEWLGVIWARGFTNYNSALMSRVTISKDNSKNQVSLKLSSVTAADTAVYYCARANDGVYYAMDYWGQGTLVTVSS VL: DFVMTQSPAFLSVTPGEKVTITCSANSSVNYIHWYQQKPDQAPKKLIYDTSKLASGVPSRFSGSGSGTDYTFTISSLEAEDAATYYCQQWTTNPLTFGQGTKVEIK |
| 290 pM | humanized TMC-2206 variant hVH12.0/hVL10.0 (antibody, human IgG1, V domains shown, human IgG1/κ constant regions; also called VH 12.0 VL 10.0) VH: QVQLQESGPGLVKPSETLSLTCTVSGFSLTNYGIHWIRQPPGKGLEWLGVIWARGFTNYNSALMSRLTISKDNSKNQVSLKLSSVTAADTAVYYCARANDGVYYAMDYWGQGTLVTVSS VL: DFVMTQSPAFLSVTPGEKVTITCSANSSVNYIHWYQQKPDQAPKKLIYDTSKLASGVPSRFSGSGSGTDYTFTISSLEAEDAATYYCQQWTTNPLTFGQGTKVEIK |
| 380 pM | humanized TMC-2206 variant hVH14.0/hVL12.0 (antibody, human IgG1, V domains shown, human IgG1/κ constant regions; also called VH 14.0 VL 12.0) VH: QVQLQESGPGLVKPSETLSLTCTVSGFSLTNYGIHWIRQPPGKGLEWLGVIWARGFTNYNSALMSRVTISKDNSKNQVSLKLSSVTAADTAVYYCARANDGVYYAMDYWGQGTLVTVSS VL: DFVMTQSPAFLSVTPGEKVTITCSANSSVNYIHWYQQKPDQAPKKLIYDTSKLASGVPSRFSGSGSGTDFTFTISSLEAEDAATYYCQQWTTNPLTFGQGTKVEIK |
